Assay results taken from the DeepSol protein solubility set.

Assay: soluble on expression in E. coli; label from the status in PepcDB or PDB records

| Sequence | soluble on expression in E. coli |
| --- | --- |
| MRNIEEDLHKNEEEDPAPEVDDTDIPVDPLLTLLYIRHTLTSPWSSSEERDTAKAAMMEEMEKHNMAPYIRLVCEALGVPLDESKLAEMDAINAKKVAAFDARLKDAVDNLGDTEVRDVLQAKCDHYARIGDLEMCMKTNEECAAKTLATGPKLDLYFQRIRLGIAFSDNDIAAKGITDAHRLMKDGDWERRNRLRVYEGIYHVFIRDFQRGSTLLLDSITTFAAGELLTFQDFVFITVVASLPVLSRPELRKRIVYSPEVNRTGVDDVRELVNSIYDCQYNKVFPNLEVVCQHLRKVVYLSPHVSYFFREMRVLIFTQFLDSYSSVTLESMGAAFGIPVPALDSMLCTLISNERIACKVDRVDGSVETYRGDTTNFDYHRIVKSGDLLLNRIQKLSRLVDM | soluble |
| MGSDKIHHHHHHCAASWVHPLTGAHLLLFGTEQGIYSFDTNCMPDGNLSKIHHRRCSWMFVYADRLTAIQGNTPYVYRHDLVALTQKNLTLKMSKNLNKIPEKYVPKRLAITVRMPETRGALQCTVKRGQGAQANSLFLCCAVRKTVHLFQWYNPMNQFVLVRSEPIREDIRFPIRPFALINSRTSDFPELCIGVGQMSGSNEYQFNMINFCSSTNNSELSGDLNSSYGSLADDEMLEVGSMHQIDRDTLCFSFRNKVVLTDLQGFERPKPSIFTFNFHIEYLHVVDGTILAFHANGVQGRDLKSNLNTQDLCDVSRLYRVIGDDRVIILRSQP | not soluble |
| MMGFSFYFFNEERYKMDKKDYKINKQNATAAKQQPLSPAAQRALNEAEERRKHETNEEKPLENGGRGGKDPSRYGDWEIKGRAIDFLEHHHHHH | not soluble |
| MAHHHHHHMSGYLKVLSPDGRWETRYIEIDDAKLRIWRTKGDKESSAAVVKELDLKCATLREVSEPNTWAVQPEKAEATYFQADGEERKTEWMDTLRHYNSSSSGSEKVTLRDFEKKFVLGKGSYGKVFMVVKKDTDKWYAMKEMSAEKMRQAEIKAPFAERIILEEIDHPFIVHLHYSFQEQGNLYMILDLLAGGELFTYIEQHAPLDEEVVKFYAAEVALALGYLHSRNIIYRDLKPENVVFDRDGHACLTDFGLAKANVHEPNAVTYCGTNEYLAPELLKGVPHGKAVDWWSLGLMMCEMLFNDLPFYDENPMQMQMKILTEDVAFPPHIQITEETKDLIRCLLNKNPERRLQTLEAFKAHKCFSNLDFCLLEARKLKAPITPDPNPAHNFAKEFTSEVIVQNESPSQAVVTLAGYTYDRDLSEQEKSPSHSPTIAEELRQRRASKKRPTNGSDAASPPVTGENRTSNSSPAGVPMKQAAPGPVKKVEHHIPAKVAPQAARKKLTGNKSFDKPTK | soluble |
| MPIPNNPGAGENAFDPVFVNDDDGYDLDSFMIPAHYKKYLTKVLVPNGVIKNRIEKLAYDIKKVYNNEEFHILCLLKGSRGFFTALLKHLSRIHNYSAVETSKPLFGEHYVRVKSYCNDQSTGTLEIVSEDLSCLKGKHVLIVEDIIDTGKTLVKFCEYLKKFEIKTVAIACLFIKRTPLWNGFKADFVGFSIPDHFVVGYSLDYNEIFRDLDHCCLVNDEGKKKYKATSL | soluble |
| MYSERPPLDPHPLSPYMAWTGYRNRDAILDVLKGVFPRDKSDVLEFAAGSGMHAHYFAQHFAHLTFHPSDSDEDLLPHIEERTRQSGLSNVARPRRLDLTQPETWPAGEKFHAIYCINVCQVAPVSIVGGIMACSSRILADGGFLFIYGPFLDYGRFASDFDEEFDRLLRSTGEEGWSLKDIAELDRAAGRHGMRLDDEIDMPSNDFALIYRRA | not soluble |
| MAGDPMVLKRIRDMFVASVHEGLDKMENPKVMLNQYVRDMESDIAKAKQTIVKQHTIAYQFKKKYEEAAEVAGKRKNQAQLAFDAGEEELAKKALTEMKYLEGKAAEHKASYEQANSQLADLKEQLAALETKLQDVKDKKQALIARANAAKAKEHMNTTFDKIDSESAYREFLRIENRIEEMEIRANYSKSAEAGTELTRKEFADDVEAEIEKMRTLSLQKSDQTKAANELEHHHHHH | soluble |
| SREIDYTAYPWFAGNMERQQTDNLLKSHASGTYLIRERPAEAERFAISIKFNDEVKHIKVVEKDNWIHITEAKKFDSLLELVEYYQCHSLKESFKQLDTTLKYPY | soluble |
| MATVSDDYAQIDISTEEKDKLVAEVMRHVLFKTHQTAGCPIKREELTQIVTKNYRQRVLPALVIKEAGDRLAATFGYEMRELQRTRAPSTRSGRPSQQQVNVDAKSYVLVSKLDPEVYSKYVEHKEAAHVSGFAFVVISIVHLSGGKISEEDLWHQLRRLGLNESDENHPVLGNNKQALELLVQQRYLLKEKLSGPEGHSMMYELAERALDESISGKLKDYISQVVSTSTAAEVD | soluble |
| MSLDLDRKLIEILDILSKSKEPVGAKIIAKELNKRGYKIGERAVRYHLKLLDGMKLTKKVGYAGRVITERGLEELEKANISYRLGSIYSNILEKTISANYRFGYVVINRCQVYADFNDVLKIIKSVYESGLAVGDRVGIIDREKFVEINTLCSLNFDNILLQNGIFPLHVCAGVVKYEDGKPVEFKEIIDYKSTSIDPLRAFIEKKETDVMGIIENGEGYLPANFRYFGVEFLERFETILEIDELKCIISYGTENVLGLDVGDDKVGVALIGGLTPIAPFVENNYCVEICPMSSIVRLESLHKLKKNPRDIVTKKANIRIKTALSKMFNAMAKVTYDIDEADGDVIVNTAFIDKKYLDEAFDILKEAYKKGLGISDRFGIVEENDRIKIQTICAVTLDGIFLRNSVPLIPKYGGILEITEDKERFIDIIGYDGSSLDPHEVFFNFVDCEKTFLAGFREVHRVAREKLEEVLKKLNWNGIKAIGEPNNELYGIGVNKDMCGVVTMGGINPLVLLKENEIPIELKAMHEVVRFSDLKSYKEIEGHHHHHH | not soluble |
| MFDDKILLITGGTGSFGNAVMKQFLDSNIKEIRIFSRDEKKQDDIRKKYNNSKLKFYIGDVRDSQSVETAMRDVDYVFHAAALKQVPSCEFFPVEAVKTNIIGTENVLQSAIHQNVKKVICLSTDKAAYPINAMGISKAMMEKVFVAKSRNIRSEQTLICGTRYGNVMASRGSVIPLFIDKIKAGEPLTITDPDMTRFLMSLEDAVELVVHAFKHAETGDIMVQKAPSSTVGDLATALLELFEADNAIEIIGTRHGEKKAETLLTREEYAQCEDMGDYFRVPADSRDLNYSNYVETGNEKITQSYEYNSDNTHILTVEEIKEKLLTLEYVRNELNDYKASMR | not soluble |
| MTREHPPEPLDFFIWTVEDVGSWLEEINLGGYRQIFKENGVNGEYLESMSVFTTEQILHFIRRHHMKWGDFITLCKELRRIKVACLKGEQRVRRPWWAPSCLSVVFVKAAKRNRQSRVVSLKLES | not soluble |
| ARQVICWCFTLNNPLSPLSLHDSMKYLVYQTEQGEAGNIHFQGYIEMKKRTSLAGMKKLIPGAHFEKRRGTQGEARAYSMKEDTRLEGPWEYGE | soluble |
| MWQLKKEQNVPIYRSIMEMIVQKIQTGELLPGEKIPSERKLAEYLSVNRSTVVHALDELVDLGWIVRKRGSGTIVNEGKWGVMMTPRTDWHRYLEQNVFKQVHPLVTEIELRAKQNLPTDLDMYTGELPLDLIPSFDFPALNWKQFLKEEAQDELGYLPLRKEIQAITATEYQLHLPSESLLLTSGAQQALFLVLQVLLRQGDSVAVEDPSFFYALPIFQAAGVRLFGVPMTEEGIDLEALEQTIRQHRIKMVMVNPSFQNPTGTVMPLRKREQLVKVCQTYQVPILEDDVFGQLSFIPKTEIPPLKKLDPDNVLYIGSLSKILGSTTKIGWLSAPASVTKQIAEARKMMDVSLSIFPQMLAKMAIEDPSFSEKITLLNKQVEQRATAVYQVFKSLSEWEVSPVKGGFYLWAHWRQGALKPEDWQVFLREGVLVAPSVAFSEKRGSIRLNCSRISPEEMPLFCERMVRITRQLSENRQTKIEQ | not soluble |
| MSLSRVTEIRYVGYGVKDFDAEKAFYADVWGLEPVGEDANNAWFKAQGADEHHVVQLRRADENRIDVIALAADSRSDVDALRASVEAAGCKVASEPAVLATPGGGYGFRFFSPDGLLFEVSSDVAKGAKRDLARWEGVPVKISHIVLHSPNHQDMVKFFTDVLGFKVSDWLGDFMCFLRCNSAHHRIAILPGPPCLNHVAYDMLSVDDMMRGAHRLKVKGIDIGWGPGRHTAGNNTFSYFVTPGGFVTEYTSELEEVDFDTHQYKVHVPAPMVMDQWGIGTGGPQTLPHPHANPGLFQTAEAEGHHHHHH | soluble |
| MAHHHHHHMENLYFQGMSSFLPEGGCYELLTVIGKGFEDLMTVNLARYKPTGEYVTVRRINLEACSNEMVTFLQGELHVSKLFNHPNIVPYRATFIADNELWVVTSFMAYGSAKDLICTHFMDGMNELAIAYILQGVLKALDYIHHMGYVHRSVKASHILISVDGKVYLSGLRSNLSMISHGQRQRVVHDFPKYSVKVLPWLSPEVLQQNLQGYDAKSDIYSVGITACELANGHVPFKDMPATQMLLEKLNGTVPCLLDTSTIPAEELTMSPSRSVANSGLSDSLTTSTPRPSNGDSPSHPYHRTFSPHFHHFVEQCLQRNPDARPSASTLLNHSFFKQIKRRASEALPELLRPVTPITNFEGSQSQDHSGIFGLVTNLEELEVDDWEF | soluble |
| MAKEWFTVKECLGLPGFPGSEPAVRERLYKYSEGKEGVRRKRVKSKAEEFHISVFPLYVHRYLDDSGEEPTPEPISLQEAEPEDIWEMMFRLLTPEQRKQVTGRFKVRGMKAVFPFLFDDTPPR | not soluble |
| MSVINKIVARRTQLSQSGRLVGDWIVENAEKAAQLTSQELAAQVKVSQSSIVKFTQRIGFKGYSEFKLALNEEIGRKHAMQSTPLHSDILADDPIAVISQKLVKAKTDAMFQTTNALSYEACHQAVKWLSEARRVQVVGIGGSALTAKDLSFKLLKLGITALSEQDSHVQIAVARTLSSEDVQIAISYSGERKEILVAAEAAKEQGAKVIALSAPGRSRLRGIADITFDTIANETEHRSSSIASRTAQNVITDLLFIILVQQRDESARQLISDISTDIKQILT | not soluble |
| MGSDKIHHHHHHMSAQIIQLHTEAPAASVAQSPRKPTKAEKAIIADYVQDLIRRGFCKITDKSAKETRLFNRFDGEPQTLSYLRENFTEWLDDNGKECEFFCERYFIRRLKHIVGRVFKPNAPEFTQSPITGYRYANTYRRYEPTVDSADLPSCFHAYFERMFPAKHQRHIVLQWLAHIFRRPDQRPSWHLMLLSEPGTGKGFLVQNILQPLLHHTSVVASYSRITGKHSAVLVENLVILLDDCKSRSEATQTEMKSFLSEERALVERKYASAGMEDTYARMILASNEEIPLYVDPNERRWYIPDDVVHLVDLRETQANIIQPLADWLDEPGSLCKVYNWFMQYPLDGFNHKSVPESEGLTRLIDKSKGPYRQYIEDYVKDNKVFTYADLVESMTDAKLSKPSDRELGHVLREIGYEATQRRIDGVRLRLCHPVGMSLQDIRAAYSASPTDPNTPF | not soluble |
| MSLANSKVYAIPTTCNSGIFVGRAENLDAIDIMKDPNYTGKVSIVGFDVANCSDNNSDDNHKNHNETAIGNGPTPKWHNSNYTSDFLNVAQQGKDTMISATLPNPVPSQEIGSVGQIAYGSQISDADFKELASVDIKNINQSSPYFVRNYGQMVSKLGDIIEKYHTELMDSNGNATIYLRPFHEMNSPWLWWGFKNQDDFKNLWIHLHNYLVNDRKFTWLKFCFAASAGDPSLDPAHVKGANSYYPGNNYVDTVALDGYSDDPSNDSGIKKQYAELTATGKPFGFAELGAKVDGDFVNVPNERTQQNVETRPFNYQKWSDAIQKYYSNAKYCIVFGGAYDPRNNLHGTSLFSNEGHHHHHH | soluble |
| SAASKLQAFWNHPAGPKTIHFWAPTFKWGISIANVADFAKPPEMISYPQQVVVACSGVIWARWGMVITPINWNLSSVNAAMAVTGVCQLSRKIRHDYFSDEKSATASLEG | soluble |
| MKRILVVFLMLAIILAGCSNKGEKYQKDIDKVYKEQNQMNKIASKVQNTIKTDIKQEDSNTHVYKDGKVIVIGIQLYKDREKMYYFAYEIKDGKAEINREIDPIKYMKDHKADYEDENVEVEKDMAGDPLEHHHHHH | not soluble |
